Data published in patent US20260034234A1 (AGENSYS, published 2026).
Residue numbers refer to the chain shown, from its start.

Assays:
[1] = biological target: T1, 191P4D12 (human, wild type, on cells) (human, UniProt Q96NY8 32-510); experiment: FACS on PC3-191P4D12 cells
T1 construct: 510 amino acid ORF expressed on PC3, RAT/Rat1(E) cells and present in cancer cell lines and tumor specimens; also called human 191P4D12; wild-type 191P4D12
T1 sequence: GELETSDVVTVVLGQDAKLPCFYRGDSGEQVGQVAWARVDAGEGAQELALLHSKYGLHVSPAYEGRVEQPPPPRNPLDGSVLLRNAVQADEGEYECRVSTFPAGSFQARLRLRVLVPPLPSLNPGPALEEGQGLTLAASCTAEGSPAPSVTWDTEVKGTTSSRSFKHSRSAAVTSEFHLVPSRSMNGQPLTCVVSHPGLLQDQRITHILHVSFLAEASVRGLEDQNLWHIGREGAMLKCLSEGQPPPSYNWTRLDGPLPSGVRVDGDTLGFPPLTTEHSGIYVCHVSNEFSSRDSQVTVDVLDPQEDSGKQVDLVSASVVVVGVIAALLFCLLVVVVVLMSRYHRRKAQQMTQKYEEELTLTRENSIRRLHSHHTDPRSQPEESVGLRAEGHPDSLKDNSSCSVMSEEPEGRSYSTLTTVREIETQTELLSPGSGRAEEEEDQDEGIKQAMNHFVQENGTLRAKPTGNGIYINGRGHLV
Description: (§1) The 191P4D12 protein of human, cynomolgus, rat and murine origin was overexpressed recombinantly in a PC3 cell line to determine cross-reactivity of Ha22-2(2,4)6.1 to these orthologs. It was shown that Ha22-2(2,4)6.1 strongly cross-reacts with cynomolgus and rat orthologs of 191P4D12 (FIG. 23).

[2] = biological target: T2, 191P4D12 (aa 1-31, 147-510), C1C2, Rat1(E) expressing line (human, UniProt Q96NY8 1-510); experiment: FACS on Rat1(E) cells expressing the C1C2 construct [Continued]
T2 construct: Deletion construct on the surface of Rat1(E) cells; also called C1C2 domain expressing cells
T2 sequence: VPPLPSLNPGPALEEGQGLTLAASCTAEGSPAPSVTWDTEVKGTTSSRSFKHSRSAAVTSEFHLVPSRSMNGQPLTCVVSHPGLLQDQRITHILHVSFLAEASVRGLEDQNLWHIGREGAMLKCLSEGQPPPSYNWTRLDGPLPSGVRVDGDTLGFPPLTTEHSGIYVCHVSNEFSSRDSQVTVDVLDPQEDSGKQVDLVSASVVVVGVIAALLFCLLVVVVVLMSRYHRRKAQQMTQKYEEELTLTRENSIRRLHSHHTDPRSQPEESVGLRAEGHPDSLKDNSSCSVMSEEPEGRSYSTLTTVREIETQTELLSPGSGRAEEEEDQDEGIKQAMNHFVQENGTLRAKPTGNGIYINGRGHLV

[3] = biological target: Murine ortholog of 191P4D12, N90S, I75A double mutant (on PC3 cells) (mouse) (UniProt Q8R007); experiment: FACS titration of Ha22-2(2,4)6.1 on PC3 cells expressing mouse 191P4D12 I75A,N90S
[4] = biological target: T3, Rat 191P4D12 (on PC3 cells) (rat, UniProt D3ZET1 31-509); experiment: FACS titration on PC3 cells expressing the rat ortholog
T3 construct: whole, on cells; also called PC3-rat-191P4D12; Rat ortholog
T3 sequence: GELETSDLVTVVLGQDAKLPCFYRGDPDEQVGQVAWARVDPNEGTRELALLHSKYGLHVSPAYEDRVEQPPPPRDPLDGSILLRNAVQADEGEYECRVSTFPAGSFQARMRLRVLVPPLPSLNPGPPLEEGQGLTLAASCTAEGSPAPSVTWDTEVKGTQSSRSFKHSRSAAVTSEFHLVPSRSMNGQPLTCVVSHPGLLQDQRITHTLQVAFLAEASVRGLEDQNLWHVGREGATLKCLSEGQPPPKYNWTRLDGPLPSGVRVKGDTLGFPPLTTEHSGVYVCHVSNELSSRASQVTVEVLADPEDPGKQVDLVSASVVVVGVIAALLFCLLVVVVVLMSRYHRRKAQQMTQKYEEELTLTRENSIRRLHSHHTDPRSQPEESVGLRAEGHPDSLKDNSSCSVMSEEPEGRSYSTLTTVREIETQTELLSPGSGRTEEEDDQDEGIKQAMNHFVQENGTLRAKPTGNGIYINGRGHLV

[5] = biological target: T4, Cynomolgus 191P4D12 (on PC3 cells) (cynomolgus monkey, UniProt A0A2K5WES1 32-510); experiment: FACS titration on PC3 cells expressing the cynomolgus ortholog
T4 construct: also called PC3-Cynomolgus-191P4D12; Cyno ortholog
T4 sequence: T1 sequence with V39A, I230V, A437T

[6] = biological target: T3, Rat 191P4D12 (on PC3 cells); experiment: FACS on PC3 cells expressing the rat ortholog
Description: as §1

B1: Ha22-2(2,4)6.1 MAb (antibody, human IgG1, kappa, V domains shown)
VH: EVQLVESGGGLVQPGGSLRLSCAASGFTFSSYNMNWVRQAPGKGLEWVSYISSSSSTIYYADSVKGRFTISRDNAKNSLSLQMNSLRDEDTAVYYCARAYYYGMDVWGQGTTVTVSS
VL: DIQMTQSPSSVSASVGDRVTITCRASQGISGWLAWYQQKPGKAPKFLIYAASTLQSGVPSRFSGSGSGTDFTLTISSLQPEDFATYYCQQANSFPPTFGGGTKVEIKR
notes: Fully human IgG1 kappa from XenoMouse; Used biotinylated in the Western blot; also called 191P4D12 MAb Ha22-2(2,4)6.1; Ha22-(2,4)6.1 MAb
In the case of B1, the EC50 [1] is reported as 0.28 nM, the binding result [2] is reported as “no binding” and the EC50 (read off the curve) [3] is reported as 0.5 nM. For the same binder, the “EC50 (read off the curve)” value [4] was about 0.3 nM, the “EC50 (read off the curve)” value [5] was about 0.3 nM and the EC50 [6] was 0.44 nM.
